Assay results from publication PMC7110144.
Substitutions are numbered along the chain they refer to. Names may count otherwise. Values belong to the binder of their own block, whether it stands above or below them.

Molecular target: T1, CENP-A-GFP-LacI (in S2 cells), Q9V6Q2
T1 chain: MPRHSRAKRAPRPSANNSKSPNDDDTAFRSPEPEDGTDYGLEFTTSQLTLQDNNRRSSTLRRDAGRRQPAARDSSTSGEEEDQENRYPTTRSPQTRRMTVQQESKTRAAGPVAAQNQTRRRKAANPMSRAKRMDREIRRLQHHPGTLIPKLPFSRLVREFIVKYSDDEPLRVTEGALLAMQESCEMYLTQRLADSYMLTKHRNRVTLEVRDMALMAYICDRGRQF
Experiment: LacO/LacI tethering assay in Drosophila S2 cells (fluorescence intensity of CAL1-V5 at the tethering site)
Settings: chain shown with the change;; parent: est. 1800; read off a plot

response: 120 a.u.
B1: CAL1WT-V5 (in S2 cells), Q9VEN2 W22R; F29R (protein)
chain: MANAVVDEETLEAMVYERSKARSSKMADRASLEDGMEIDVAEFDNLFHGEDEDPDLDDVAKEAVEDNVPDEAKLEMGHINATSVTELTLILCANEDNEAKAEIEEILNQTVPVVEEHKRKWREAGLDRILDTFDEKQIEHHVGRWMRRHNSVYLEASPPKYLPPHHNSISDESDESMHSIDTARYIQQSRRRNAHMTNKNMTTIKMYRKHSHKRDELRAKYAYGDEQEHRHHMQAVLLRRRERERQLAYLASTPMQCVYSSGHHMRRKNLRKRRINSWMFDSASSSEEDTSFGGCDCHSCRRHYALSRSVYQSCPYGRGQREYHHRQMASRTMHTMRRQHTFDMEMDLRPRLPENECSCCNSDRLCSNVIHIANSSTEEWVVENRSNHLTQETQEKTRKQKHQPMDARKVSHQPVCSKGHEQKPLSSKATSVSKLVLSKEKYMQMFDSESSDEDNALAKKGLLCCSDKKKGMTFPTPNAAGKITHPTSSAKKAIRKEARPNGLAQIQEEGPTATNSPIESTYLPVAHMKSVSIDGSSGTSATFESPAKKAPKRGIRETSPLNGNELQQLISTIPIADEKASSLMEKVDNCIGRESFDDRNKDFMHMENSSTKTAVEKSTKQKRVSGKKSEIPKSIITNNEILEKNSTETLSEKQVAAKAKKQSVRKTGATGKPSTSRLKKSEKTKTTSSVTSTSKLEQVREEESDVSSEVLAKPKPQCSTTASILKQGGDGASNSEDDLQIALAMSKATYKEEQQKRKKTKREPSNKQPQSPAEKSMTVFNNQSVACNSTALANDTACYRVLPKRRGVKRAAAVSTTEEKTATNSSSSPTSSLEEMGSPTGGDPDCTVVTSTTGCEPPASERQEIPATIKITKRGILLHSPSAPEGASFTLTEQGLGKIIGERWARKYLKYHIGSRSFDSRHSVYYQPTPQLAAALSAPQDAQNIGNISGSSASDDDIFEQINRYGTVYSILENNSGDK

response: 590 a.u.
B2: CAL1WT-V5 (in S2 cells), Q9VEN2 F43R (protein)
chain: B1 chain with R22W, R29F, F43R
